US6730828B1, “Isolated nucleic acids encoding a wheat glutathione transferase, plants transformed therewith and methods of use thereof” (Aventis Agriculture Limited, priority 1997, dated 2004)

Key:
Format in all cases: biochemical
GST activity toward CDNB = settings: recombinant wheat GST expressed in E. coli, affinity purified
[1] = GST activity toward herbicide metolachlor (HPLC-based assay); settings: recombinant wheat GST expressed in E. coli, affinity purified; ± standard error
[2] = Glutathione peroxidase activity toward cumene hydroperoxide; settings: recombinant wheat GST, affinity purified; ± standard error (n = 3)
[3] = GST activity toward crotonaldehyde; settings: recombinant wheat GST, affinity purified; ± standard error
Experimental: (§1) To assay the recombinant fusion proteins for GST activity, the E. coli were grown in the presence of IPTG and then pelleted by centrifugation. The bacteria were then lysed by sonication and the protein precipitated using 80% ammonium sulphate. After resuspension and desalting, GSTs were purified by affinity chromatography. The WIC 3 fusion protein was purified using sulphobromophthalein-S-glutathione affinity chromatography (Mozer et al. Biochem. 22, 1983, 1068-1072) while the other WIC fusion proteins were purified using glutathione-agarose (Mannervik and Guthenberg. Methods Enzymol. 77 1981, 231-235).The purified enzymes were then assayed for GST activities toward herbicides (Table 3) and GST activities toward non-herbicide substrates and glutathione peroxidase activities toward organic hydroperoxides (Table 4).

[4] = GST activity toward ethacrynic acid; settings: recombinant wheat GST, affinity purified; ± standard error; N.D = not detected
Experimental: as §1

[5] = GST activity toward benzyl isothiocyanate; settings: recombinant wheat GST, affinity purified; ± standard error
Experimental: as §1

[6] = GST activity toward herbicide fluorodifen (HPLC-based assay); settings: recombinant wheat GST expressed in E. coli, affinity purified; ± standard error
[7] = GST activity toward herbicide fenoxaprop-ethyl (HPLC-based assay); settings: recombinant wheat GST expressed in E. coli, affinity purified; ± standard error

B1: WIC 4: recombinant type I wheat GST, SEQ ID No. 11, amino acid SEQ ID No. 12; coding sequence identical in WIC 10 (protein)
chain: MAPVKVFGPAMSTNVARVLVCLEEVGAEYEVVDIDFKAMEHKSPEHLVRNPFGQIPAFQDGDLLLFESRAIARYVLRKYKKNEVDLLREGDLKEAAMVDVWTEVDAHTYNPAISPIVYECSSTAHARLPTNQTVVDESLEKLKNVLEVYEARLSKHDYLAGDFVSFADLNHFPYTFYFMATPHAALFDSYPHVKAWWERIMARPAVKKLAAQMVPKKP
modifications: Triticum aestivum L.
In the case of B1, the “GST activity toward CDNB” value (GST activity toward CDNB) is reported as 980 nkat.mg^−1, the “GST activity toward metolachlor” value [1] is reported as 0.037 ± 0.003 nkat.mg^−1 and the “Glutathione peroxidase activity toward cumene hydroperoxide” value [2] is reported as 6.2 ± 0.3 absorbance change at 340 nm.mg^−1. For the same molecule, the “GST activity toward crotonaldehyde” value [3] was 5.5 ± 0.6 nkat.mg^−1, the “GST activity toward ethacrynic acid” value [4] was 1.4 ± 0.3 nkat.mg^−1 and the “GST activity toward benzyl isothiocyanate” value [5] was 4.2 ± 0.4 nkat.mg^−1. The “GST activity toward fluorodifen” value [6] was 0.036 ± 0.004 nkat.mg^−1 and the “GST activity toward fenoxaprop-ethyl” value [7] was 0.012 ± 0.001 nkat.mg^−1.
